Assay [1] has as its target T1, His-tagged human prothrombin (human, UniProt P00734 44-622, limits assumed).
T1 construct: not shown: His tag
Nature of the assay: binding ELISA; His-tagged human prothrombin coated on plate.

Assay [2] addresses T2, His-tagged human thrombin (human, UniProt P00734 328-622). Nature of the assay: binding ELISA; biotinylated His-tagged human thrombin on streptavidin plate.
Assay [3] concerns the target T2, His-tagged human thrombin. Nature of the assay: Biacore SPR; ratio of the affinities for thrombin and prothrombin. Background: Surface plasmon resonance follows binding to a sensor surface in real time, without labels.

Consider one molecule from WO2019096294A1 (dated 2019).

A word on the EC50: it is the concentration at which the effect is half-maximal. A lower EC50 goes with an effect from little substance.

B1: h1601-008 (antibody, V domains shown)
VH: EVQLVESGGGLVQPGGSLRLSCAASGFTFSDYYMAWVRQAPGKGLEWVSNINSDGSSTYYLDSLKSRFTISRDNSKNTLYLQMNSLKAEDTAVYYCARDHYHGNSYVFDYWGQGTTVTVSS
VL: DIQMTQSPSSLSASVGDRVTITCKASEDIYNRLAWYQQKPGKAPRLIISGATSLETGVPSRFSGSGSGKDYTLTISSLQPEDFATYYCQQYWSTPWTFGGGTKVEIK
notes: Humanized parent antibody from WO2017133673A1; Only VH and VL are tied to it; it was detected with an anti-human secondary antibody and captured with an anti-human capture kit
Take B1: the EC50 was determined as 0.151 µg/mL in assay [1] and 0.375 µg/mL in assay [2]. The “selective activity (affinity for thrombin relative to affinity for prothrombin)” value in assay [3] is 11.2.
